Drawing on patent US20190008947A1, this text covers REVEAL Score and IC50 for two molecules.

The target of assay [1] is HLA-A*02:01 (human), P04439.
The next assay deals with A*11:01, P04439. Particulars: modification not given.
In another assay the target is A*03:01, P04439. To be noted: modification not given.

B1: … (SEQ ID NO: 344) (peptide)
peptide: TALTGATEI
modifications: not checked
B1 displayed an REVEAL Score in assay [1] of 0.9.

B2: …, serotype 1 (peptide)
chain: ALKLSWFKK
For B2, the IC50 with A*11:01, P04439 is 59 nM; in the assay with A*03:01, P04439 it was 42 nM.
